# Experimental data: patent US20240174744A1 (SCIRHOM, published 2024)
# T1: hiR2-FL-I566E-T7 (human iRhom2 full length I566E, 3 x T7 tag) (human, UniProt Q6PJF5 1-856)
# T1 sequence: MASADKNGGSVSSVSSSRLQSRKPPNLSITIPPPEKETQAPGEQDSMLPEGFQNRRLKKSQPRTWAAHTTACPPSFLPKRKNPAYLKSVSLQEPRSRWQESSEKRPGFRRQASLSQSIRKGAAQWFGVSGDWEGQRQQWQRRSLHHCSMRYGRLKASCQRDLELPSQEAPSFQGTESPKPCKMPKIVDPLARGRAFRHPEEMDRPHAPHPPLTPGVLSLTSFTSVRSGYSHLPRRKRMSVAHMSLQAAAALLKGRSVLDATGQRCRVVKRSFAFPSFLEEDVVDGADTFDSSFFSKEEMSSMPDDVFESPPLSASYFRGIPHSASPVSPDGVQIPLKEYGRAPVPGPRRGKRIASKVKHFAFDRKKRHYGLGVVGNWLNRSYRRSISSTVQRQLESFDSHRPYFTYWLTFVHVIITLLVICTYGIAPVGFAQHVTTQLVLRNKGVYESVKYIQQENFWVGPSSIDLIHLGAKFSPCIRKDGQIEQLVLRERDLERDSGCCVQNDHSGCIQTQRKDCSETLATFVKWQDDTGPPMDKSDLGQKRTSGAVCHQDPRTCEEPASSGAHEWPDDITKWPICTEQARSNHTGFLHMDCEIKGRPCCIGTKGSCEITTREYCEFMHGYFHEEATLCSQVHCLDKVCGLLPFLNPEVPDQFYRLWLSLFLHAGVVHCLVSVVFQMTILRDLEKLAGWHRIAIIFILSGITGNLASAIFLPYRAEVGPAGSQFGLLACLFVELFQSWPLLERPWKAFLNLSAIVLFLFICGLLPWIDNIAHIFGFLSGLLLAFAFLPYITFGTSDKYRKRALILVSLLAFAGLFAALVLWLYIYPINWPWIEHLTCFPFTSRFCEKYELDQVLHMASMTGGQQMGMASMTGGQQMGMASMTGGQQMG
# B1: antibody 43 (antibody, V domains shown)
# VH: QVALKESGPGILQPSQTLSLTCSFSGFSLSTFGMGVGWIRQSSGKGLEWLANIWWDDDKYYNPALKSRLTISKDASKNQAFLKIANVDTADTATYYCARIGNYGSNYWYFDVWGTGTTVTVSS
# VL: QIVLTQSPAIMSASPGERVTMTCSANSRISYMYWYQQKPGSSPRLLIYDTSNLASGVPVRFSGSGSGTSYSLTISRMEAEDAATYNCQQWSSYPLTFGAGTKLELK
# notes: Mouse IgG, kappa light chain; also called clone #43
# B2: antibody 42 (antibody, V domains shown)
# VH: QVTLKESGPGILQPSQTLSLTCSLSGFSLSTFGRGVGWIRQPSGKGLEWLAHIWWDDEKYYNPALKSRLTISKDTSKNQVFLRIANVDTADTATYYCARIQNYGSNYWYFDVWGTGTTVTVSS
# VL: LIVLTQSPAIMSASPGEKVTMTCGATSRISYMFWYQQKPGSSPRVLIYDTSNLASGVPVRFSGSGSGTSYSLTISRVEAEDVATYYCQQWNSYPLTFGAGTKLELK
# notes: Mouse IgG, kappa light chain; also called clone #42; m42
# B3: antibody 44 (antibody, V domains shown)
# VH: QVTLKESGPGILQPSQTLSLTCSFSGFSLSTFGMGVGWIRQPSEKGLEWLAHIWWDDDKYYNPALKSRLTISKDTSKNQIFLKITNVDTAETATYYCSRIGNYGSNYWYFDVWGTGTTVTVSS
# VL: QIVLTQSPAVMSASPGEKVTMTCTASSSVYYMYWYQQTPGSSPRLLIYDTSNLASGVPVRFSGSGSGTSYSLTISRMEAEDAATYYCQQWNTYPLTFGAGTKLELK
# notes: Mouse IgG, kappa light chain; also called clone #44; m44
# B4: antibody 22 (antibody, V domains shown)
# VH: QVTLKESGPGILQPSQTLSLTCSFSGFSLSTFGMGVGWIRQPSGKGLEWLAHIWWDDEKYYNSALKSRLTISKATSKNQVFLKIANVDTADTATYYCARISNYGSNYWYFNVWGTGTTVTVSS
# VL: QVVLTQSPALMSASPGEKVTMTCSAGSSVSYMYWYQQKPGSSPRVLIYDTSNLASGVPARFTGSGSGTSYSLTISRMEAEDAATYYCQQWNSYPLTFGAGTKLELK
# notes: Mouse IgG, kappa light chain; also called clone #22; m22
# B5: antibody 34 (antibody, V domains shown)
# VH: QVTLKESGPGILQPSQTLSLTCSFSGFSLSTFSLGVGWIRQSSGKGLEWLAHIWWDDEKYYNPALKSRLTISKDTSKNQVFLKIANVDAADTATYYCARAYYSKSYYALDYWGQGTSVTVSS
# VL: DIQMTQSPSSLSASLGERVSLTCRASQEISGYLSWLQQKPDGTIKRLIYAASTLDSGVPKRFSGSRSGSDYSLAISSLESEDFADYYCLQYANFPFTFGSGTKLEIK
# notes: Mouse IgG, kappa light chain; also called clone #34; m34
# Target: T1, hiR2-FL-I566E-T7 (human iRhom2 full …)
# Experiment: FACS on cells of the row I566E, vs human iR2 wild type = 100%
# Source text: In brief, immortalized MEF-DKO hiR2-FL-G563D-T7, MEF-DKO hiR2-FL-A564P-T7, MEF-DKO hiR2-FL-I566E-T7, MEF-DKO hiR2-FL-D569E-T7, MEF-DKO hiR2-FL-E579K-T7, MEF-DKO hiR2-FL-Q580N-T7, MEF-DKO hiR2-FL-A581S-T7, MEF-DKO hiR2-FL-R582A-T7, MEF-DKO hiR2-FL-S583G-T7, MEF-DKO hiR2-FL-G587N-T7, MEF-DKO hiR2-FL-F588H-T7, MEF-DKO hiR2-FL-L589P-T7, MEF-DKO hiR2-FL-E594V-T7, MEF-DKO hiR2-FL-K596T-T7, MEF-DKO hiR2-FL-S607R-T7, MEF-DKO hiR2-FL-T612S-T7, MEF-DKO hiR2-FL-E617D-T7, MEF-DKO hiR2-FL-H620R-T7, MEF-DKO hiR2-FL-L636M-T7, MEF-DKO hiR2-FL-K638D-T7, MEF-DKO hiR2-FL-I771F-T7, MEF-DKO hiR2-FL-I825V-T7, MEF-DKO hiR2-FL-I828V-T7, MEF-DKO hiR2-FL-N829R-T7, MEF-DKO hiR2-FL-W830C-T7, MEF-DKO hiR2-FL-P831E-T7, MEF-DKO hiR2-FL-1833C-T7, MEF-DKO hiR2-FL-H835F-T7, MEF-DKO hiR2-FL-F839I-T7, MEF-DKO hiR2-FL-S843D-T7, MEF-DKO hiR2-FL-Q853A-T7, MEF-DKO hiR2-FL-V854Q-T7 and MEF-DKO hiR2-FL-R844K-T7 cells were harvested with 10 mM EDTA in PBS, washed and resuspended in FACS buffer (PBS, 3% FBS, 0.05% sodium azide), and seeded in Nunc U-bottom 96-well plates (Thermo Fisher Scientific, USA) at approximately 1×10⁵ cells per well. To pellet cells and remove supernatants, the plates were centrifuged at 1,500 rpm and 4° C. for 3 minutes. For primary staining, cells were resuspended in 100 μl per well of either FACS buffer alone (controls) or the purified antibodies 3, 5, 16, 22, 34, 42, 43, 44, 48, and 50 of the present disclosure at 3 μg/ml in FACS buffer and incubated on ice for 1 hour. Afterwards, plates were centrifuged at 1,500 rpm and 4° C. for 3 minutes and washed twice with 200 μl per well of FACS buffer. For secondary staining, cells were spun down and resuspended in 100 μl per well of PE-conjugated goat anti-mouse IgG F(ab′)2 detection fragment (Dianova, Germany) diluted 1:100 in FACS buffer. Protected from light, the cell suspensions were incubated on ice for 1 hour. Plates were then centrifuged at 1,500 rpm and 4° C. for 3 minutes and washed three times with 200 μl per well of FACS buffer. Finally, cells were resuspended in 150 μl per well of FACS buffer and analyzed using a BD Accuri™ C6 Plus flow cytometer (Becton Dickinson, Germany).
row,Binder,grade of loss of binding vs wild type
1,B1,2 grade (2 => 60% loss of binding vs wild type)
2,B2,2 grade (2 => 60% loss of binding vs wild type)
3,B3,2 grade (2 => 60% loss of binding vs wild type)
4,B4,2 grade (2 => 60% loss of binding vs wild type)
5,B5,2 grade (2 => 60% loss of binding vs wild type)
